One experiment addresses chicken MRP126 (chicken) (UniProt P28318). The experiment is described as follows: SEC-MALS; Superose 12 10/300 GL; samples at 0.5-2 mg/ml in tris buffer (25 mM tris, 100 mM NaCl, pH 7.4) + 0.5 mM CaCl2; flow 0.2 ml/min. (Size exclusion chromatography separates by hydrodynamic size, large species first.)
In a further experiment the target is human S100A9 (human) (UniProt P06702). The description is as above.
In experiment [1] the target is human S100A9 M63F (human) (UniProt P06702). Described as above.
In a further experiment the target is human S100A12 (human) (UniProt P80511). The experiment is described as above.
The target of experiment [2] is opossum Toll-like receptor 4 (opossum).

By stoichiometry N is commonly meant a count of units in the complex or per binding partner. On to “chicken MRP126 (from UniProt P28318 1-119) (natural protein)”, for which the stoichiometry N with chicken MRP126 (chicken) was 2.
Consider “human S100A9 (from UniProt P06702 1-114) (natural protein)”, for which the stoichiometry N with human S100A9 (human) turned out to be 2.
Regarding “human S100A9 M63F (from UniProt P06702 1-114) (natural protein)”, the stoichiometry N in experiment [1] is 2.
For the substance “human S100A12 (from UniProt P80511 1-92) (natural protein)”, the stoichiometry N with human S100A12 (human) was 2.
For the substance opossum S100A9 (natural protein), the NF-κB luciferase reporter in HEK293T cells transfected with opossum TLR4, MD-2 and CD14; activity against that of human A9 (fold of human A9 activity) in experiment [2] is 0.5.

Source of the values: paper PMC7213983.
